Assay [1] addresses HAdV-D26 penton base (human adenovirus D26 (HAdV-D26)). Kind of assay: cryo-EM structure.
The target in assay [2] is HAdV-D26 hexon (human adenovirus D26 (HAdV-D26)). In words: cryo-EM structure.

Several values for one entry are separate records, joined by “and”; a condition that tells them apart may be missing. Equal values may be shown once.

With HAdV-D26 penton base (natural protein), the stoichiometry N (commonly the number of molecules, sites or subunits per partner or assembly) in assay [1] worked out at 5 subunits.
Take “cleaved N-terminal fragment of HAdV-D26 pre-protein VI (pVIn) (peptide)”: the stoichiometry N (copies of pVIn in a hexon) in assay [2] was 2 and 3.

The values above are taken from paper PMC8878492.
